Results reported in US20080319173A1.

Target: PSGL-1/mIgG2b produced in CHO cells with FUT2 (Se gene) and α1,3 GalNAcT (A gene) (mouse)
Assay: western blot, chemiluminescence volumes (Fluor-S Max MultImager), anti-A signal divided by anti-mIgG signal

relative A epitope density (ratio of blood group A to mIgG reactivity), fold over PSGL-1/mIgG2b made in 293T cells with FUT2 and the A gene: 3 fold
Substance: mouse anti-human blood group A all types (mIgM, Dako) (antibody)
